{"source": "the DeepSol protein solubility set", "data": [{"assay": "soluble on expression in E. coli; label from the status in PepcDB or PDB records", "values": [{"sequence": "MSLSAPLPLCVIGAGCVGMRHVEVARRSPQIRLTAVVEPVETRRRALAESGLVAVATLEEVPRETRAAIVATPTPDHLATGLAALSRGWAVLVEKPTAGTMDDARVLLGAADRAGLPLYVGHHRRCHPFSRAAREALGGIGDLVGLQGLWSLRKHDSYYAEDWRRQAGAGPLMTNLSHEIDLLRFLVGDMVEVSALTSSARRGLVVPDTAALAFRFADGALGSFLISDAGASPWSFEAACAENPAIAVSGQDYIRITGTAGALEFPSLTRWGRSAPGEIEWSKPLARAAGAGFARVDPLLEQINRFAAVLEGAQDDVLCTGTDGNAALEMTLAAALSGKLGRPVRAHEVPGDYSGEGHHHHHH", "soluble on expression in E. coli": "soluble"}, {"sequence": "MGSDKIHHHHHHMIELIATAESVEQAVELLATGVDTLYIGEETFGLRLPVSFTRDEQREIVKRAHEMGKQVLVAVNGIMHPEKMKLVPEYLTFLKEINVDKITLGDPGIVFIMQRDGLEIPYVYDGETLVTSSRQINFWSKRGAIGAVLAREVPFEEMVAMEENLAVPAEILVYGATCIHQSKRPLIQNYYNYTKNDKGVTKDEGLFISEPKKPETHYSIYEDSHGTHIFANNDVNLMNELTNLYDHHYRTWKLDGLYTPGENFVAIARLFAEAKAALEAGTWSEDQAAHATAEIEKLHPTGRGLDNGFFDLSADAIK", "soluble on expression in E. coli": "not soluble"}, {"sequence": "MNSTHHYEQLIEIFNSCFADDFNTRLIKGDDEPIYLPADAEVPYNRIVFAHGFYASAIHEISHWCIAGKARREQVDFGYWYCPDGRDAQTQSQFEDVEVKPQALDWLFCVAAGYPFNVSCDNLEGDFEPDRVVFQRRVHAQVMDYLTNGIPERPARFIKALQNYYHTPELTAEQFPWPEALN", "soluble on expression in E. coli": "soluble"}, {"sequence": "MAKLTRLGDLERAVMDHLWSRTEPQTVRQVHEALSARRDLAYTTVMTVLQRLAKKNLVLQIRDDRAHRYAPVHGRDELVAGLMVDALAQAEDSGSRQAALVHFVERVGADEADALRRALAELEAGHGNRPPAGAATET", "soluble on expression in E. coli": "soluble"}, {"sequence": "MSCDRKDEEKKETEEKKDDESKKKDEKKEEKSKRKEDEKKEKQNIAGAVYNQMRNTILMEEGSVISGRFEVKGIIGGGGFAQIYKAWDKVRKEDCAIKVEHESQDIRRMKLEITVLLALRGSMGIPEILAQGKWQHEDNKSHYIVMQLVGRNLSDVRRALPHKRITERTLYRAMIQVLKALSLVHGAGFLHRDLKPSNCCIGAIDCTRIYLIDYGLTRQYLDKGGIVRKPRAGVGLRGTVRYMSLDAHARQDLGPKNDLVAFLYTTIECGDGYLPWSHEKTHENIIKLKQAHIGDKLCTKQPVMTKAAEYIESLNYHSIPDYEKLLALMEECNPPDLKESEPYDWQYRHLPNGTPGGTKENVTERMAI", "soluble on expression in E. coli": "soluble"}, {"sequence": "MSSSTKTLSQTYGPRPQSFSLDEAGERYYIGSEIGAYLRLHRGTLYKKYPLLWRKVATSDDKDKLKQIAMSNAFLHTNIMLLRAHEVDELLDGSEEKYRAAGAAPSTPRTEGASRTVAKTPATGWAGQQVTSGSHHLESVPCSCPIAHSRGRMKHRELVYSAEDLEMSKRVMKNAEEGEDLVPIRLDMELDGIKLRDTFTFNKNEKMITPEMIAEIMCEDLDLPLAVFQPAITAAINQQLEASTEAPPLDVNICDQRAVLKLNINVGNQSLVDQFEWDMSDPNNSPEEFSRNICKELGLGGEFMSGIAYSIRGQLQWNQRTYAFSESPLATVDCPFRTSSEVESWGPFLETLTDAEIEKKMRDQDRNTRRMRRLVGGGFNY", "soluble on expression in E. coli": "not soluble"}, {"sequence": "MGSISRYLLKKAADGLKDEQRLKIEMSDSKSVPECFHFNRERRMPIAEINGEDGFFMFPSQQSLENFENTKKYSNELSPDAIGIPLFQIINCTLPFGKRGHSNTVVGNVPYYKIFKFILRTADEPPPYTVAKIVCSNNGLILYKVPLYDIYKNVSQANVTYSFVGTTSTEPNLLAMAHREGHRDLDTKVNNLNLRWHVTYSPVVTNDHYKLILLADYEVNRLDEDVIRAAKNKMSIDQKDQKVQRFVAAHYTREFETSLFRWVAQEGHLILGEYSTDQGSFGLNNIPPLTEELGCQSLLIHYIEYMKRQRKKIAKEARRQNKRNVANTTNMNMNLM", "soluble on expression in E. coli": "soluble"}, {"sequence": "MGHHHHHHSHMKKLICISLYEDLSMTTYDLSKVDNAELIGIVENASEGTLFVFTCDRPNGSSVIMCPGGGFLKTNLENEGIDFAEWFTKLGITYIVFKYRMPHGNPDVPEQDTRLALKVVREKFPEFCDKLGVMGASIGGYLATFSATLLPDDEKPDFQILMYPVVSVDDRLTHFPCRERMFGHSYSPDKMEQYSPIEHITSGTPAAFIVAAADDAVVSPLNGIMYAARLQKADIPISLHIYPAGGHGFGYNDSFVYKQEWLQELGEWLAKL", "soluble on expression in E. coli": "soluble"}]}]}
